Assay results published in patent US7807387B2, “Biological agent that causes IL-6 receptor release” (Meyer Pharmaceuticals LLC, priority 2003, dated 2010).

What was measured:
[1] = system: carrageenan-induced paw edema; test: Carrageenan-induced paw edema; type: in vivo, Sprague Dawley rats
Experimental: Based on the standard model (Winter et al., Proc Soc Exp Biol Med 111:544, 1962; Hansra et al., Inflammation 24:141, 2000), the experiment was performed as follows. Male Sprague Dawley rats were randomized by weight into three treatment groups. The animals were administered MP8 or control solution subcutaneously, or indomethacin by mouth. One hour later, they were injected in the left hind paw with a sterile solution of 1% carrageenan suspension in water, in order to induce swelling. Three hours later, the volume of the injected paw was measured by water displacement in a water plethysmograph (mean±SEM; 10 animals per group).
Male Sprague Dawley rats were administered with test protein or indomethacin (anti-inflammatory control), and then challenged in a hind footpad with carrageenan, as in Example 12.

p55 or p75 TNF receptor = conditions: cited from earlier work
p55 TNF Receptor = p55 TNF Receptor (Homo sapiens, UniProt P19438); test: FRET peptide cleavage assay, p55 TNF receptor peptide; type: biochemical; conditions: Zn++ 0.1 mM, Ca++ 2 mM, corrected for EDTA, 37° C. for 3 hours
Experimental: Cytokine-specific proteolytic activity can rapidly be quantified by Fluorescence Resonance Energy Transfer (FRET). Peptides having the amino acid sequence of the TNF Receptor or other protein substrates are labeled at opposite ends with a fluorescence emitter and a fluorescence quencher. The peptide is then incubated with a source of receptor cleaving enzyme, and fluorescence is measured. The quenching group normally absorbs fluorescence from the emitter. But enzymatic cleavage of the peptide decouples the quenching group, and fluorescence emission increases proportionally.
The peptides used as substrates in the cleavage assay were taken from the known sites of proteolytic cleavage of the whole protein. The peptides were labeled with the fluorescence emitter (Edans-●) at the C-terminal, and the quenching hapten (Dabcyl-▴) at the N-terminal.
The assay is conducted in the presence of the metal cations Zn^++ (0.1 mM) and Ca^++ (2 mM), and corrected for cleavage in the presence of EDTA (20 mM). Dependence on divalent cations confirms that the enzyme activity measured in this assay is a metalloprotease. The assay mixture also contains a cocktail of protease inhibitors and bovine albumin. Cleavage is measured as the net change in fluorescence emission after incubating the enzyme with the peptide at 37° C. for 3 hours. […]

Isoelectric point = type: physicochemical
TNF receptor = test: Cell surface cleavage assay, release of TNF receptor isoforms by enzyme immunoassay; type: cell-based; conditions: 25 μg protein with 2.5×10^6 cells; (treated—untreated)/untreated
Experimental: To determine cell surface cleavage activity, 25 μg of MP8-FL2 was combined with 2.5×10^6 cells. Release of both TNF receptor isoforms was determined by enzyme immunoassay as (treated—untreated)/untreated.

LPS-induced septic shock = test: LPS/galactosamine-induced septic shock model; type: in vivo, Balb/c mice; conditions: up to 40 μg one hour before 10 μg LPS and 15 mg galactosamine
Experimental: A classic model for determining effectiveness of agents against cytokine-mediated inflammation is endotoxin-induced septic shock (Morrison et al., J Infect Dis 162:1063, 1990).
The septic shock experiment was conducted as follows. Female Balb/c mice were randomized by weight into 6 treatment groups. Sepsis was induced by injecting 10 μg LPS and 7 mg galactosamine in the lateral or dorsal caudal vein. Some of the groups were pretreated with 50,000 FU of MP8 simultaneously or 3 hours in advance of the LPS challenge to determine whether there was a protective effect.
FIG. 8 is a Kaplan-Meier survival curve, showing the mortality in each of the treatment groups in the study. Without any treatment or challenge, there is no effect on the animals, and the line stays at the top. Life-compromising challenge causes the line to fall to the bottom of the graph in a step-wise fashion as each animal succumbs. Treatment that is protective against the challenge maintains the line near the top of the graph.
The enzyme was administered in a volume of 110 μL at one hour before the LPS challenge.
Stability of the clinical effect of MP8 was determined in the septic shock model. Female Balb/c mice were injected with 300,000 FU of MP8 that had been stored for 4 days at −70° C., or 7 days at 4° C. One hour later, the mice were challenged with 10 μg LPS and 7 mg galactosamine as before.
In this example, durability of receptor cleavage in vivo was determined by treating animals subcutaneously up to three days in advance with 300,000 FU of MP8. The mice were then challenged with […] LPS and 7 mg galactosamine in the usual fashion.
Sepsis was induced in Balb/c mice by administering 10 μg LPS and […] galactosamine, as in Example 3. Randomized groups were pretreated with up to 40 μg MP8-FL2 one hours in advance of the LPS challenge.

COc1ccc2c(c1)c(CC(=O)O)c(C)n2C(=O)c1ccc(Cl)cc1 [indomethacin, reference compound]
inhibition of edema formation ([1]; given one hour before carrageenan, paw volume three hours later, MP8 subcutaneously, indomethacin by mouth): 49%

B1: MDC-9: metalloprotease (protein, UniProt Q13443 29-819, looked up)
Disintegrin and …: AARPGFQQTSHLSSYEIITPWRLTRERREAPRPYSKQVSYVIQAEGKEHIIHLERNKDLLPEDFVVYTYNKEGTLITDHPNIQNHCHYRGYVEGVHNSSIALSDCFGLRGLLHLENASYGIEPLQNSSHFEHIIYRMDDVYKEPLKCGVSNKDIEKETAKDEEEEPPSMTQLLRRRRAVLPQTRYVELFIVVDKERYDMMGRNQTAVREEMILLANYLDSMYIMLNIRIVLVGLEIWTNGNLINIVGGAGDVLGNFVQWREKFLITRRRHDSAQLVLKKGFGGTAGMAFVGTVCSRSHAGGINVFGQITVETFASIVAHELGHNLGMNHDDGRDCSCGAKSCIMNSGASGSRNFSSCSAEDFEKLTLNKGGNCLLNIPKPDEAYSAPSCGNKLVDAGEECDCGTPKECELDPCCEGSTCKLKSFAECAYGDCCKDCRFLPGGTLCRGKTSECDVPEYCNGSSQFCQPDVFIQNGYPCQNNKAYCYNGMCQYYDAQCQVIFGSKAKAAPKDCFIEVNSKGDRFGNCGFSGNEYKKCATGNALCGKLQCENVQEIPVFGIVPAIIQTPSRGTKCWGVDFQLGSDVPDPGMVNEGTKCGAGKICRNFQCVDASVLNYDCDVQKKCHGHGVCNSNKNCHCENGWAPPNCETKGYGGSVDSGPTYNEMNTALRDGLLVFFFLIVPLIVCAIFIFIKRDQLWRSYFRKKRSQTYESDGKNQANPSRQPGSVPRHVSPVTPPREVPIYANRFAVPTYAAKQPQQFPSRPPPPQPKVSSQGNLIPARPAPAPPLYSSLT
cleavage of p55 or p75 TNF receptor (p55 or p75 TNF receptor): do not efficiently cleave

B2: ADAM-10: metalloprotease (protein, UniProt O14672 214-748, looked up)
Disintegrin and …: TTSAEKNTCQLYIQTDHLFFKYYGTREAVIAQISSHVKAIDTIYQTTDFSGIRNISFMVKRIRINTTADEKDPTNPFRFPNIGVEKFLELNSEQNHDDYCLAYVFTDRDFDDGVLGLAWVGAPSGSSGGICEKSKLYSDGKKKSLNTGIITVQNYGSHVPPKVSHITFAHEVGHNFGSPHDSGTECTPGESKNLGQKENGNYIMYARATSGDKLNNNKFSLCSIRNISQVLEKKRNNCFVESGQPICGNGMVEQGEECDCGYSDQCKDECCFDANQPEGRKCKLKPGKQCSPSQGPCCTAQCAFKSKSEKCRDDSDCAREGICNGFTALCPASDPKPNFTDCNRHTQVCINGQCAGSICEKYGLEECTCASSDGKDDKELCHVCCMKKMDPSTCASTGSVQWSRHFSGRTITLQPGSPCNDFRGYCDVFMRCRLVDADGPLARLKKAIFSPELYENIAEWIVAHWWAVLLMGIALIMLMAGFIKICSVHTPSSNPKLPPPKPLPGTLKRRRPPQPIQQPQRQRPRESYQMGHMRR
cleavage of p55 or p75 TNF receptor (p55 or p75 TNF receptor): do not efficiently cleave

B3: MP8-FL2: full length MP8 (SEQ. ID NO:53) without HIS tag, produced from E. coli strain MP820 (protein, listed as Homo sapiens)
chain: MCVHPGACLPHVGVSWAEFPGHFSVELSSLLVRNVNYEIPSLKKQIAKCQQLQQEYSRKEEECQAGAAEMREQFYHSCKQYGITGENVRGELLALVKDLPSQLAEIGAAAQQSLGEAIDVYQASVGFVCESPTEQVLPMLRFVQKRGNSTVYEWRTGTEPSVVERPHLEELPEQVAEDAIDWGDFGVEAVSEGTDSGISAEAAGIDWGIFPESDSKDPGGDGIDWGDDAVALQITVLEAGTQAPEGVARGPDALTLLEYTETRNQFLDELMELEIFLAQRAVELSEEADVLSVSQFQLAPAILQGQTKEKMVTMVSVLEDLIGKLTSLQLQHLFMILASPRYVDRVTEFLQQKLKQSQLLALKKELMVQKQQEALEEQAALEPKLDLLLEKTKELQKLIEADISKRYSGRPVNLMGTSL
cleavage of p55 TNF receptor (R1) peptide (p55 TNF Receptor): caused cleavage
Isoelectric Point - By isoelectric focusing (Isoelectric point): 5.6
paw swelling ([1]; challenge in hind footpad with carrageenan as in Example 12): significantly prevented paw swelling
cleavage and release of TNF receptor from the cell surface (TNF receptor): cause cleavage and release of TNF receptor, with preference for the R1 (p55) isoform
protection against septic shock (LPS-induced septic shock): protected the mice in a dose-dependent fashion
